Where two headings read alike, the source gives them in different places. One block for each binder: values may come before it.
What was measured:
[1] = target: human CD3 epsilon/delta heterodimer, Fc-tagged (human); assay: SPR, 25C antibody-capture
[2] = target: human CD3 on Jurkat cells (human); assay: FACS
[3] = target: human CD3 epsilon/delta heterodimer, Fc-tagged (human); assay: SPR, 37C
[4] = target: T1, cynomolgus CD3 on T cells (cynomolgus monkey); assay: FACS
T1 chain: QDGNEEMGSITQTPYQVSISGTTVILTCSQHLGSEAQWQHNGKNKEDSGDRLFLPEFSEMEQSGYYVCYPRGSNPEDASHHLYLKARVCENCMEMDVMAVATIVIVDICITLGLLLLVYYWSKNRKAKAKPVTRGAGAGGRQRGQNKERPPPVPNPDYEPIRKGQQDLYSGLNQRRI

[5] = target: human CD3 on Jurkat cells (human); assay: FACS; remark: listed apart in the source
[6] = target: human CD3 epsilon/delta heterodimer, Fc-tagged (human); assay: SPR, 25C antibody-capture; remark: listed apart in the source
[7] = target: human CD3 epsilon/delta heterodimer, Fc-tagged (human); assay: SPR, 25C antigen-capture
[8] = target: human CD3 on Jurkat cells (human); assay: FACS; remark: listed apart in the source
[9] = target: human CD3 epsilon/delta heterodimer, Fc-tagged (human); assay: SPR, 25C antibody-capture; remark: listed apart in the source
[10] = target: human CD3 on Jurkat cells (human); assay: FACS; remark: listed apart in the source
[11] = target: human CD3 epsilon/delta heterodimer, Fc-tagged (human); assay: SPR, 25C antibody-capture; remark: listed apart in the source
[12] = target: human PSMA, N-terminal 6xHis (soluble) (human); assay: SPR, 37C
Sequence of human PSMA, N-terminal 6xHis (soluble) (human) (A4UU12 whole entry): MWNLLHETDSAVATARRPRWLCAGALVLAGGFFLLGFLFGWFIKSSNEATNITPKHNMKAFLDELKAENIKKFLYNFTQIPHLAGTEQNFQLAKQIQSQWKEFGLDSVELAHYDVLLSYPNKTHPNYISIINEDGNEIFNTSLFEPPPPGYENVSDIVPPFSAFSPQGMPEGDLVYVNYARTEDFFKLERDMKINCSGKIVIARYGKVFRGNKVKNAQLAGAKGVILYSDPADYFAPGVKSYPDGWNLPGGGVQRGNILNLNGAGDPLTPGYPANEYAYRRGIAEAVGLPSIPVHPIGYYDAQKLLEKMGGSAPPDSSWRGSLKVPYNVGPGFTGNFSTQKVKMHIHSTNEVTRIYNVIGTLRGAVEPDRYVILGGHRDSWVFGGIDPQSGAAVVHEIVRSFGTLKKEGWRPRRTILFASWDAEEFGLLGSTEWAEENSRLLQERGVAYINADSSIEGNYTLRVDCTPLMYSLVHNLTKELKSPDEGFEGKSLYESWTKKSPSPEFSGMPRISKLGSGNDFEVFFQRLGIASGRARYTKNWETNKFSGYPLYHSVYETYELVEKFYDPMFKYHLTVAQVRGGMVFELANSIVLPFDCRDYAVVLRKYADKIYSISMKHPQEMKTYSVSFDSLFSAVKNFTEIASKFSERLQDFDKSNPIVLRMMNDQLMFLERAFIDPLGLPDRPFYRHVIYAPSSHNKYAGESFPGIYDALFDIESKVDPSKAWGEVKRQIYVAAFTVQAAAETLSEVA

[13] = target: human CD3 epsilon/delta heterodimer, Fc-tagged (human); assay: SPR, 25C antigen-capture; remark: listed apart in the source

Sequence of human CD3 on Jurkat cells (human) (chain, as listed by the source, chain 1 of 2): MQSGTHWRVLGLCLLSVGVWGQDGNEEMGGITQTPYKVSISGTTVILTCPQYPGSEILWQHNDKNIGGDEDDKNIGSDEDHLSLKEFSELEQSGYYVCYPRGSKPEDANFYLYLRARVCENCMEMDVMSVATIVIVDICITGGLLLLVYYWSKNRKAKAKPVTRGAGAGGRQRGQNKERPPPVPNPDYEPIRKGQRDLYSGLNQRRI
Sequence of human CD3 on Jurkat cells (human) (chain, as listed by the source, chain 2 of 2): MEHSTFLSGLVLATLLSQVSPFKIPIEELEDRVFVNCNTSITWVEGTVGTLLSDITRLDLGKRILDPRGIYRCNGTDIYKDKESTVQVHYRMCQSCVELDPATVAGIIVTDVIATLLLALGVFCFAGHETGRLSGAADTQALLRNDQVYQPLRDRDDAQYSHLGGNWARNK
Sequence of human CD3 epsilon/delta heterodimer, Fc-tagged (human) (chain, as listed by the source mutant, chain 1 of 2): as the sequence (chain, as listed by the source, chain 1 of 2) above
Sequence of human CD3 epsilon/delta heterodimer, Fc-tagged (human) (chain, as listed by the source mutant, chain 2 of 2): as the sequence (chain, as listed by the source, chain 2 of 2) above

binding result [1]: no binding
B1: H1xH7221G3 (antibody, V domains shown)
VH: EVQLVESGGGLVQPGRSLRLSCAASGFTFDDYSMHWVRQAPGKGLEWVSGISWNSGSIGYADSVKGRFTISRDNAKNSLYLQMNSLRAEDTALYYCAKDGSGYGYFYYYGMDVWGQGTTVTVSS
VL: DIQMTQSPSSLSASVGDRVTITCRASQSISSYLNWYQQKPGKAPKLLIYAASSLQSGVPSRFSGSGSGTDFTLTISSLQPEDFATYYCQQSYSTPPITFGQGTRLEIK

binding result [2]: no binding | binding result [3]: no binding | binding result [4]: no binding
B2: BSPSMA/CD3-300 CD3 arm (antibody, V domains shown)
VH: EVQLVESGGGLVQPGRSLRLSCAASGFTFDDYSMHWVRQAPGKGLEWVSGISWNSGSIGYADSVKGRFTISRDNAKNSLYLQMNSLRAEDTALYYCAKDGSGYGYFYYYGMDVWGQGTTVTVSS
VL: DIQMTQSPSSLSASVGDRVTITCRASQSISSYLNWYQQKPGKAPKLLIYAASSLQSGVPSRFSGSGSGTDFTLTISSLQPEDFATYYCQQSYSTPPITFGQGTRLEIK

EC50 [5]: 1.4 nM
B3: H1H7221P (antibody, V domains shown)
VH: EVQLVESGGGLVQPGRSLRLSCVASGFTFDDYSMHWVRQAPGKGLEWVSGISWNSGSKDYADSVKGRFTISRDNAKNSLYLQMNSLRAEDTALYYCAKYGSGYGKFYHYGLDVWGQGTTVTVSS
VL: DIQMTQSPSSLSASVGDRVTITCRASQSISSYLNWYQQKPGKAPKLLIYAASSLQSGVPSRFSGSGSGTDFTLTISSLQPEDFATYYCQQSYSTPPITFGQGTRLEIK

Kd [6]: 8.9 nM
B4: H2M2778N (antibody, V domains shown)
VH: EVQLVESGGGLVQPGRSLRLSCAASGFTFDDYSMHWVRQAPGKGLEWVSGISWNSRSIDYADSVKGRFTISRDNAKNSLYLQMNSLRAEDTALYYCVKDNSGYGRYYYYGMDVWGQGTTVSVSS
VL: KIVMTQSPATLSVSPGERATLSCRASQSVSGNLAWYQQKPGQAPRLLIYGASTRATSIPARFSGSGSGTEFTLTISSLQSEDFAVYFCQHYYNWPLTFGGGTKVEIR

binding result [1]: no binding
B5: H1xH7221G5 (antibody, V domains shown)
VH: EVQLVESGGGLVQPGRSLRLSCAASGFTFDDYSMHWVRQAPGKGLEWVSGISWNSGSIGYADSVKGRFTISRDNAKNSLYLQMNSLRAEDTALYYCAKDGSGYGKFYYYGMDVWGQGTTVTVSS
VL: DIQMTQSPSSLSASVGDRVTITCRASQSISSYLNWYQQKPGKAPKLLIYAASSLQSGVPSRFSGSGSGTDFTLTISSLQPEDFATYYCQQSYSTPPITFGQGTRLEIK

binding result [2]: no binding | binding result [3]: no binding | binding result [4]: no binding
B6: BSPSMA/CD3-400 CD3 arm (antibody, V domains shown)
VH: EVQLVESGGGLVQPGRSLRLSCAASGFTFDDYAMHWVRQAPGKGLEWVSGISWNSGSIGYADSVKGRFTISRDNAKNSLYLQMNSLRAEDTALYYCAKDGSGYGKFYYYGMDVWGQGTTVTVSS
VL: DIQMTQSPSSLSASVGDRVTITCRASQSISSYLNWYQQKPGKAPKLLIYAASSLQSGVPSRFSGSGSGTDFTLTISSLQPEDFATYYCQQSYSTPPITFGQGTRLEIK

binding result [2]: no binding | binding result [3]: no binding | binding result [4]: no binding
B7: BSPSMA/CD3-200 CD3 arm (antibody, V domains shown)
VH: EVQLVESGGGLVQPGRSLRLSCAASGFTFDDYAMHWVRQAPGKGLEWVSGISWNSGSIGYADSVKGRFTISRDNAKNSLYLQMNSLRAEDTALYYCAKDGSGYGYFYYYGMDVWGQGTTVTVSS
VL: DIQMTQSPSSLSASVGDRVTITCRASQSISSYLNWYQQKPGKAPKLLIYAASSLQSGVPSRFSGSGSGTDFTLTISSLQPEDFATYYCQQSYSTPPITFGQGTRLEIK

Kd [7]: 0.14 nM
B8: H2M2776N (antibody)
chain 1: QVQLVESGGGVVQPGRSLRLSCAASGFTFRSFGMHWVRQAPGRGLEWVAMIYFDGKNKYYADSVRGRFTISRDNSKNTLYLEMSSLRAEDTAVYFCARGPGYNWLDPWGQGTLVTVSS
chain 2: EIVMTQSPATLSVSPGERVILSCRASQSISRNLAWYQXKPGQAPRLLIYGATTRATGVPARFSGSGSGTEFTLTISSLQSEDFAVFYCQQYNNRPLTFGGGTEVEIK
modifications: not fully specified; listing feature

binding result [8]: no binding
B9: H1H5785B (antibody, V domains shown)
VH: QVQLVESGGGVVQPGRSLRLSCAASGLTFSTYVMHWVRQAPGKGLAWVAVIANDGSNKYYADSVKGRFTISRDNSKNTLYLQMNSLRPEDTAVYFCAKEGGTSGSYYYYGMDVWGQGTTVTVSS
VL: DIQMTQSPDSLAVSLGERATINCKSSQSLLFNSINKNYLAWYQQKPGQPPKLLLYWASTRESGIPDRFSGSGSGTDFTLTITSLQAEDVALYYCQQYYSIPWTFGQGTKVEIKR

binding result [8]: no binding | binding result [9]: no binding
B10: H1H5782P (antibody, V domains shown)
VH: EVQLVESGGGLVQPGRSLRLSCAASGFTFDDYAMHWVRQAPGKGLEWVSGISWNSGSKDYADSVKGRFTISRDNTRNSLFLQMNSLRTEDTALYYCAKDKSGYGSFYYGMDVWGQGTTVTVSS
VL: not shown

Kd [6]: 130 nM | EC50 [10]: 1.1 nM
B11: H2M3548N (antibody, V domains shown)
VH: EVQLVESGGGLVQPGRSLRLSCAASGFKFADYAMHWVRQAPGKGLEWVSEISWNSGSIGYVDSVKGRFTISRDNAKNSLYLQMNSLRAEDTALYYCVKDKSGYGHYYIGMDVWGQGTTVIVSS
VL: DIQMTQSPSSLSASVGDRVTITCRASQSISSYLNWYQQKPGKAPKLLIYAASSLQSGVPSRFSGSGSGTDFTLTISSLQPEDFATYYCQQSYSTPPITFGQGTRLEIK

Kd [7]: 0.0215 nM
B12: H2M3547N (antibody, V domains shown)
VH: EAQLVESGGGLVQPGRSLRLSCTTSGFTFDDYTMHWVRQAPGKGLEWISDISWNGGTKGYADSVKGRFTISRDNAKNSLYLQMDSLRGEDTALYYCVKDKSGYGHFYFGLDVWGQGTTVTVSS
VL: DIQMTQSPSSLTASVGDRVTFTCRASQSISRHLSWYQQKPGKAPKLLIYAASSLESGVPSRFSGSGSGTDFTLTISSLHPEDFATYYCQQSYSNPPITFGQGTRLEIK

EC50 [5]: 1.5 nM | Kd [11]: 13 nM
B13: H1H7194P (antibody, V domains shown)
VH: EVQLVESGGGLVQPGRSLRLSCAASGFTFGDYTMHWVRQAPGKGLEWVSDISWNSGSKDYADSVKGRFTISRDNAKNSLYLQMNSLRTEDTAFYYCAKDSRGYGLYYHLGLDVWGQGTTVTVSS
VL: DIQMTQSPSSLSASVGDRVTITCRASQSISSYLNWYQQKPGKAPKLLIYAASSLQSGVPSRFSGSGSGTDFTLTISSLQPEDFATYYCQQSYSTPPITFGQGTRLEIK

binding result [8]: no binding
B14: H1H5753B (antibody, V domains shown)
VH: QVQLVESGGGLVQPGGSLRLSCAASYFTFSSFAMNWVRQAPGQGLEWVSAISGRVSAISGSGGITYYADSVKGRFIISRDNSKNTLYLQMSGLRAEDTAVYYCAKGPYLTTVTPFDYWGQGTLVTVSS
VL: DIQLTQSPSSVSASVGDRVTITCRASQGISSWLAWYQQKPGKAPKLLIYAVSSLQNGVPSRFSGSGSGTDFTLTISSLQPEDFATYYCQQANSFPFTFGPGTKLEIKR

binding result [8]: no binding
B15: H1H5756B (antibody, V domains shown)
VH: EVQLVESGGGVVQPGRSLRLSCTASGFPFSRYGMHWVRQAPGKGLEWVTFIWYDGSNKYYADSAKGRFTITRDNSKNTVYLQMDSLRADDTAVYYCVRDQAALYYFDSWGQGTLVTVSS
VL: DIQMTQSPSSVSASVGDRVTITCRASQGISRWLAWYQQKPGKAPKLLISAASSLQSGVPSRFSGSGSGTDFTLTISGLQPEDFATYYCQKANSFPFTFGPGTKLEIKR

binding result [9]: no binding
B16: H1H5752P (antibody, V domains shown)
VH: QVQLVESGGGVVQPGRSLRPSCAASGFSFRDYGMHWVRQAPGKGLEWMAHIWYNGKNKYYADSVKGRFTISRDNSKNTLYLQMNSLRPEDTAVYYCARDGVSARGTPFDYWGQGTLVTVSS
VL: ETTLTQSPAFMSAAPGDKVSISCIASQYIDDDVNWYQQKPGETAIFIIQEASTLVPGISPRFSGSGYGTHFTLTINNIDSEDAAFYFCLQHDNFPYTFGQGTKLEIK

Kd [7]: 0.14 nM | Kd [6]: 13.7 nM | EC50 [10]: 0.296 nM
B17: H2M2705N (antibody, V domains shown)
VH: QVQLVESGGGVVQPGRSLRLACVASGFTFRSYGMHWVRQAPGKGLQWVAMIYYDGKNKYYADSVRGRFTISRDNSKNTLYLQMNNLRVEDTAMYFCARGPGYNWLDPWGQGTLVTVSS
VL: EIVMTQSPATLSVSPGERATLSCRASQRISSNLAWYQQKPGQAPRLLIYGASTRATGSPARFSGSGSGTDFTLTISSLQSEDVAVYYCQQHHNWPLTFGGGTKVEIK

Kd [12]: 1.93 nM
B18: H1M11453N (antibody, V domains shown)
VH: EFQVVESGGGLVKPGGSLRLSCVVSGFTFSNYNMNWVRQAPAKGLEWVSSISTGSSDIYYADSVKGRFTISRDNAKNSLYLQMNSLRVEDTAVYYCARDIIGTTRDWGQGTLVTVSS
VL: DIQMTQSPSSLSASVGDSVTITCRASQSINNYLNWYQQKPGKAPKLLIYTASSLLSGVPSRFSGSGSGTDFTLTISGLHPEDFATYFCQQSFSTPPITFGQGTRLDIK

Kd [12]: 1.76 nM
B19: H2M11899N (antibody, V domains shown)
VH: QVQLVESGGGVVQPGRSLRLSCAASGFTFSSYDIHWVRQAPGKGLEWVSVIWYDGSNKYYADSVKGRFTISRDNSKNTLYLQMNSLRAEDTAVYYCARTVAARNYDYYVMDVWGQGTTVTVSS
VL: DIQMTQSPSSLSASVGDSVTITCRASQSINNYLNWYQQKPGKAPKLLIYTASSLLSGVPSRFSGSGSGTDFTLTISGLHPEDFATYFCQQSFSTPPITFGQGTRLDIK

Kd [13]: 0.82 nM
B20: H1H7250P (antibody, V domains shown)
VH: QVQLVESGGGLVQPGRSLRLSCAASGFTFDDYTMHWVRQGPGKGLEWVSDIGWNSNTKGYADSVKGRFTISRDNAKNSLYLQMNSLRPEDTALYFCVKDKSGYGKFFIGLDVWGQGTMVTVSS
VL: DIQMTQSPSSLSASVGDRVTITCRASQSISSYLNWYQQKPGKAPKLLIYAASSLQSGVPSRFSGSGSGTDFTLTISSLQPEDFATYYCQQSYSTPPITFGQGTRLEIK

Kd [11]: 22 nM
B21: H1H7241P (antibody, V domains shown)
VH: EVQLVESGGGLVQPGRSLRLSCAASGFTFADYTMHWVRQGPGKGLEWVSDIGWNSNTIGYADSVKGRFAISRDNAKNSLYLQMNSLRPEDTALYYCVKDKSGYGKFQYGLDVWGQGTTVTVSS
VL: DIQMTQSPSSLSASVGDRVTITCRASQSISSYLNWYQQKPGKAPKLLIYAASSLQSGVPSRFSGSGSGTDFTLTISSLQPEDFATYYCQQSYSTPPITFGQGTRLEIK

Kd [11]: 24 nM
B22: H1H7258P (antibody, V domains shown)
VH: QVQLVESGGGLVQPGRSLRLSCAASGFTFDDYTMHWVRQGPGKGLEWVSDIGWNSNTIGYADSVKGRFTISRDNARNSLYLQMNSLRPEDTALYYCVKDKSGYGKFQYGLDVWGQGTTVTVSS
VL: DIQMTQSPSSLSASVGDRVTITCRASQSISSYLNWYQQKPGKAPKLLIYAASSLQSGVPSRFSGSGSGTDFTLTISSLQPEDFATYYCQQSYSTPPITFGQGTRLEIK

Source: patent US20210403595 (published 2021)
